# Data taken from the supplement of paper PMC7125110.
# ± gives the standard error. For some assays here: Variants at the floor of the assay were thinned out.
# B1: glmS ribozyme (parent)
# chain: AUAAAAGCGCCAGAACUACAGAAAUGUAGUUGACGAGGAGGAGGUUUAUCGAAUUUUCGGCGGAUGCCUCCAAA
# Tests used:
# Settings in all cases: with glucosamine-6-phosphate
# glucosamine-6-phosphate [1] = variants of: B1; test: kcat; higher = faster cleavage; RNA array
# How it was run: (§1)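 kobs was derived by fitting per-tile medians to one- or two-exponential decays after normalising signals to baseline and to non-cleaving reference variants. Those signals came from barcoded ribozyme variants transcribed in situ by E. coli RNA polymerase on sequenced MiSeq chips, followed through a hybridised Cy3 probe at 37 °C and imaged over ~14 h. Glucosamine-6-phosphate (40 μM to 10 mM) in HEPES/KCl/Mg(OAc)2 buffer was flowed in. Weighted Michaelis–Menten fits across concentrations then gave kcat and KM.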
# glucosamine-6-phosphate [2] = variants of: B1; test: KM; higher = weaker cofactor use; RNA array
# How it was run: as §1
# glucosamine-6-phosphate [3] = variants of: B1; test: self-cleavage kobs at 40 uM GlcN6P; higher = faster cleavage; RNA array
# How it was run: as §1
# glucosamine-6-phosphate [4] = variants of: B1; test: self-cleavage kobs at 160 uM GlcN6P; higher = faster cleavage; RNA array
# How it was run: as §1
# glucosamine-6-phosphate [5] = variants of: B1; test: self-cleavage kobs at 640 uM GlcN6P; higher = faster cleavage; RNA array
# How it was run: as §1
# glucosamine-6-phosphate [6] = variants of: B1; test: self-cleavage kobs at 2500 uM GlcN6P; higher = faster cleavage; RNA array
# How it was run: as §1
# glucosamine-6-phosphate [7] = variants of: B1; test: self-cleavage kobs at 10000 uM GlcN6P; higher = faster cleavage; RNA array
# How it was run: as §1
Variant,kcat (glucosamine-6-phosphate [1]) [s⁻¹],KM (glucosamine-6-phosphate [2]) [µM],self-cleavage kobs at 40 uM GlcN6P (glucosamine-6-phosphate [3]) [s⁻¹],self-cleavage kobs at 160 uM GlcN6P (glucosamine-6-phosphate [4]) [s⁻¹],self-cleavage kobs at 640 uM GlcN6P (glucosamine-6-phosphate [5]) [s⁻¹],self-cleavage kobs at 2500 uM GlcN6P (glucosamine-6-phosphate [6]) [s⁻¹],self-cleavage kobs at 10000 uM GlcN6P (glucosamine-6-phosphate [7]) [s⁻¹]
C16A A42G,0.00215 ± 0.00056,2550 ± 900,3.27e-05 ± 1.1e-05,0.000111 ± 2.3e-05,0.00062 ± 0.00012,0.00103 ± 0.0002,0.00165 ± 0.00043
G59A C67U,4.36e-05 ± 1.3e-05,,,,,,3.54e-05 ± 9.1e-06
G38A U55G,< 1e-05,,,< 1e-05,,,
A39C G51A,< 1e-05,,,,,< 1e-05,< 1e-05
A39U C50G C58U,1.28e-05 ± 4e-06,,,,,,
C50U U65G,< 1e-05,,< 1e-05,,,,
U30G A52U,6.83e-05 ± 9.4e-06,,,,,4.14e-05 ± 1.5e-05,5.6e-05 ± 1e-05
A14U U46G,0.0012 ± 0.00012,2150 ± 380,1.98e-05 ± 6.9e-06,9.07e-05 ± 2.1e-05,0.000293 ± 4.6e-05,0.000548 ± 0.0001,0.00104 ± 0.00012
U55G U69C,0.000334 ± 4.6e-05,,0.000197 ± 4.3e-05,0.000229 ± 6.1e-05,0.000303 ± 6.9e-05,0.000289 ± 6.4e-05,0.000457 ± 8e-05
A39G G66A,0.0379 ± 0.019,,0.000706 ± 0.00011,0.00437 ± 0.0011,0.00601 ± 0.001,0.0223 ± 0.0067,0.0342 ± 0.0078
U46C U55C,0.00703 ± 0.0025,3630 ± 1700,0.000129 ± 1.9e-05,0.000217 ± 4.2e-05,0.00108 ± 0.00013,0.00291 ± 0.00042,0.00515 ± 0.00071
A52U C67A,0.000206 ± 1.5e-05,1480 ± 240,,,6.53e-05 ± 8.3e-06,0.000124 ± 1.6e-05,0.000183 ± 2.1e-05
A39C G66A,0.004 ± 0.00092,2860 ± 890,7.75e-05 ± 1.2e-05,0.000194 ± 3.3e-05,0.000666 ± 8.8e-05,0.00181 ± 0.00027,0.0033 ± 0.00049
A48U G66U,2.75e-05 ± 2.7e-06,,,,,,2.42e-05 ± 8e-06
G7U G13A,< 1e-05,,< 1e-05,,,< 1e-05,
U49G C68G,3.3e-05 ± 5.3e-06,,,,,3.47e-05 ± 1.3e-05,
A12G G32C C68G,1.4e-05 ± 2.2e-06,,,,,,
C10U U30C G59A G60A C70U,< 1e-05,,< 1e-05,,,,
C11A C68G,< 1e-05,,,,,,
U47C U49G,0.000198 ± 1.4e-05,1240 ± 220,,,6.46e-05 ± 1.7e-05,0.000146 ± 3.2e-05,0.000169 ± 3.6e-05
